Results on 2 molecules are retold here after patent publication US20260258125A1 (NONA BIOSCIENCES SUZHOU, published 2026).

Assay [1] concerns the target T1, recombinant human CEACAM6 Fc-tag protein (human, UniProt P40199 35-320, limits assumed).
T1 construct: also called huCEACAM6 (Octet); not shown: Fc tag
T1 sequence (looked up): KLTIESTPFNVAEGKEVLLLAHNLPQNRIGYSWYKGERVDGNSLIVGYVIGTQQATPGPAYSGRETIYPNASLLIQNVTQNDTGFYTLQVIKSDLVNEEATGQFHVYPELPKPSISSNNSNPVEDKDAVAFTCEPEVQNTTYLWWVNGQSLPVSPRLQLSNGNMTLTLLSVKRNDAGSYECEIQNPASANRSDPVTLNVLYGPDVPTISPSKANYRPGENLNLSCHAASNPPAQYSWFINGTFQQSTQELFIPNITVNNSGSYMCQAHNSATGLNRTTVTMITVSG
As to the kind of experiment: Octet (BLI), antibody on AHC sensor, antigen in solution. As to the method:
(§1) Binding kinetics of recombinant anti-CEACAM5/6 antibodies to CEACAM5 and CEACAM6 were analyzed by Octet. In Octet analysis, recombinant human CEACAM5 Fc-tag protein (#Uniprot P06731) or CEACAM6 Fc-tag protein (Uniprot P40199) was serially diluted with 1×kinetic buffer (Fortebio). Anti-CEACAM5/6 dual-binding antibodies were diluted to 5 μg/mL. Then diluted antibodies, antigen and regeneration buffer (10 mM glycine pH 1.75) were added to 96-well plates (Greiner). Rate constants for association and dissociation were measured using AHC sensor (Fortebio). The sensor surface was regenerated after each binding experiment with regeneration buffer. The traces were processed using ForteBio Data Analysis Software (version 8.0, Pall ForteBio, CA, USA).

Assay [2] has as its target T2, recombinant human CEACAM5 Fc-tag protein (human, UniProt P06731 35-685, limits assumed).
T2 construct: also called huCEACAM5 (Octet); huCEACAM5-Fc; not shown: Fc tag
T2 sequence (looked up): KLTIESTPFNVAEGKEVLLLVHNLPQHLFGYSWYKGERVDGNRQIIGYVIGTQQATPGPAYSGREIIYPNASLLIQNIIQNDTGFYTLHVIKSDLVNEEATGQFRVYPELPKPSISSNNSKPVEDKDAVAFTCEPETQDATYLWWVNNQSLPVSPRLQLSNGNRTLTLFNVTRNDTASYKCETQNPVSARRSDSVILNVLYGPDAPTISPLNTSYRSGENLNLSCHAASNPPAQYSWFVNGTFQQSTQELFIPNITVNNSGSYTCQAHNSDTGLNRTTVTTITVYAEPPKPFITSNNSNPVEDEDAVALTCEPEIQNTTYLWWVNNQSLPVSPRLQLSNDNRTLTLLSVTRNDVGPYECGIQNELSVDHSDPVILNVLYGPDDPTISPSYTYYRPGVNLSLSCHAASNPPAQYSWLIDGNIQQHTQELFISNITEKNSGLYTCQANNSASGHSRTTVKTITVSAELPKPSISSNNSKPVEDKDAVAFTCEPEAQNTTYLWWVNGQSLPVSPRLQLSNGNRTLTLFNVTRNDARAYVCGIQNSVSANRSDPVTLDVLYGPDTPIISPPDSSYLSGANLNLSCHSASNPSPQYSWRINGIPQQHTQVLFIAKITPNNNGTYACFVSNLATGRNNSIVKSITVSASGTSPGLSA
The assay is described as above. The procedure: as §1

In assay [3] the target is T3, human CEACAM5 on 293T cells (293T-huCEACAM5 cells) (human, UniProt P06731 35-685).
T3 construct: whole, on cells
T3 sequence (looked up): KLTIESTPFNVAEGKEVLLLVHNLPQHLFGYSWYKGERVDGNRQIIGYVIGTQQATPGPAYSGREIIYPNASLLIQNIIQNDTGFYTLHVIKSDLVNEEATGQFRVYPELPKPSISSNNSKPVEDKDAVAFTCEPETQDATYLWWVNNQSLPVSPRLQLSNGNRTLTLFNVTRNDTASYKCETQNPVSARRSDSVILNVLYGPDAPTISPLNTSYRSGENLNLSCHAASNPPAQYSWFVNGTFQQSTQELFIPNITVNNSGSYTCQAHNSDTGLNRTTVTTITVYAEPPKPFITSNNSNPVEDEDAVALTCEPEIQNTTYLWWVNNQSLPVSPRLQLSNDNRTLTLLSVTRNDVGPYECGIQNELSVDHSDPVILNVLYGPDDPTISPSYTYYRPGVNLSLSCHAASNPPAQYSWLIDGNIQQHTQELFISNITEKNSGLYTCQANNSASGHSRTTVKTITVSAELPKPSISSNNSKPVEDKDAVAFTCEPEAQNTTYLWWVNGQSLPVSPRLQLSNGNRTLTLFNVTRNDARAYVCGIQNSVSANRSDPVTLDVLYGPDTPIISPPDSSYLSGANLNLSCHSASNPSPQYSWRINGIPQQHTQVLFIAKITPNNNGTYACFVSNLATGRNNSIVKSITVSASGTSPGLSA
As to the kind of experiment: flow cytometry on 293T-huCEACAM5 cells with against without 100 nM soluble CEACAM5.

Assay [4] deals with T3, human CEACAM5 on 293T cells …. As to the kind of experiment: cell-based or functional assay.
For assay [5], the target named is T4, cyno CEACAM5 protein (cynomolgus monkey).
T4 construct: also called cynomolgus CEACAM5
Nature of the assay: ELISA, antigen coated on plate. The source says: (§2) Binding of recombinant anti-CEACAM5/6 dual-binding monoclonal antibodies against human and cynomolgus CEACAM5, and human CEACAM6 (Uniprot P40199), human CEACAM 1, 3 (NP_001806.2, Sino Biological 11933-H08H) and 8 (NP_001807.2, Acro Bio CE8-H5224) were detected by ELISA. Anti-CEACAM5/6 dual-antibodies were serially diluted in staining buffer (PBS containing 2% FBS). […] ELISA was used to test the binding between antibody containing supernatant or purified antibodies and the antigen. Briefly, the antigens were coated on a 96-well high binding plate overnight at 4° C. The plate was washed with PBST three times, incubated with blocking buffer (2% Bovine Serum Albumin) for one hour at 37° C., washed with PBST three times and incubated with antibody containing supernatant or purified antibodies at desired dilutions or concentrations for one hour at 37° C. A secondary antibody, anti-human Fc-HRP (Jackson Laboratory, 109-035-097) was used for detection of the targeted antibody. TMB and stopping solution were used for detection of HRP signal. The HRP signal was read on a SPECTRAMAX plate reader.
(In general: ELISA stands for enzyme-linked immunosorbent assay.)

The target of assay [6] is T5, human CEACAM1 protein (human, UniProt P13688 35-428).
T5 construct: also called huCEACAM1
T5 sequence (looked up): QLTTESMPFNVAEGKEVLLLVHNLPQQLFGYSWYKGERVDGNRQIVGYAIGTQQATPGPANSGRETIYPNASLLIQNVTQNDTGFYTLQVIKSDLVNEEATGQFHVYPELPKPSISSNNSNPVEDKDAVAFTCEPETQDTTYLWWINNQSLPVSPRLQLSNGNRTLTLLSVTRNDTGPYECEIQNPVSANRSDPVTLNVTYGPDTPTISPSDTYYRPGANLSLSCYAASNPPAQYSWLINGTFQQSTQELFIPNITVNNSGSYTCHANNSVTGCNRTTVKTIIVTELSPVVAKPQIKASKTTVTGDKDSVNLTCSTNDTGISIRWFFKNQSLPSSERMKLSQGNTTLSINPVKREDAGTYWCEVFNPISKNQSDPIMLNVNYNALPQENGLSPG
As to the kind of experiment: ELISA, antigen coated on plate.
From the text: as §2

Assay [7] deals with T6, recombinant CEACAM5-his protein, biotinylated (UniProt P06731 35-685, limits assumed, biotinylated (sites not given)).
T6 construct: not shown: His tag
T6 sequence (looked up): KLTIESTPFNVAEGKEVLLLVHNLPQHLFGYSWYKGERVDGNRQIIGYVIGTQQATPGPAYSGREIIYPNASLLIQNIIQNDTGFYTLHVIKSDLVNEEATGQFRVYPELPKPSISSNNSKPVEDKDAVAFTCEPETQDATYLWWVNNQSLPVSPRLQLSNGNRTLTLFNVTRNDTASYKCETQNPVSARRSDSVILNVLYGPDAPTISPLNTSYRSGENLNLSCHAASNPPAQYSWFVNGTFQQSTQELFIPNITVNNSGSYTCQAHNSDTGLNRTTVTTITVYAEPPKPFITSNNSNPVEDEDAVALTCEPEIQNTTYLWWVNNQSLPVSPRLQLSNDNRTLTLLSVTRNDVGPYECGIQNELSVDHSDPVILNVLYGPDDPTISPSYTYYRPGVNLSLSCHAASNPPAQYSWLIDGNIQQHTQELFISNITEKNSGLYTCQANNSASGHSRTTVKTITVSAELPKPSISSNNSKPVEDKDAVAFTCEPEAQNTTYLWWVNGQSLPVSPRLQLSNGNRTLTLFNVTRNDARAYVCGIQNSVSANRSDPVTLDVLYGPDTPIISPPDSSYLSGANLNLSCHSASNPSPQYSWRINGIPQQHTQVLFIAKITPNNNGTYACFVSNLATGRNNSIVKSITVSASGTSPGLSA
As to the kind of experiment: Octet epitope binning on biotinylated CEACAM5-his; competitor PR304171. As to the method: In epitope binning analysis using Octet, antibodies were tested against other antibodies in a pairwise fashion to see if antibodies block one another's binding to the epitope of the antigen. The first and second antibodies was diluted into same concentration which could saturate the binding of immobilized antigens. Recombinant CEACAM5-his protein was biotinylationed and was then used as antigen and immobilized to SA sensor. The first antibody was associated with antigen and then followed by the second antibody. Data were analyzed by ForteBio Data Analysis Software (version 8.0, Pall ForteBio). The rate of RU values of the same antibody as 2nd antibody to as 1st antibody was calculated as the co-binding rate of this antibody to other antibodies.
For orientation: BLI is a label-free optical method that tracks binding on a fibre tip over time.

B1: PR304294 (antibody, human IgG1, kappa, V domains shown)
VH: EVQLLESGGGLVQPGGSLRLSCAASGFTFSSYAMSWVRQAPGKGLEWVSAISGTTYNTYYAGSVKGRFTISRDNSKNTLYLQMNSLRAEDTAVYYCAKGISVAGYYYYGMDVWGQGTTVTVSS
VL: EIVMTQSPATLSVSPGERATLSCRASQSVISNLAWYQQKPGQAPRLLIYGASTRATGIPARFSGSGSGTEFTLTISSLQSEDFAVYYCHQYNNWPLTFGGGTKVEIKR
notes: Recombinant full antibody
B1: the equilibrium dissociation constant (Kd) is 19.9 nM in assay [1] and 5.48 nM in assay [2]. Further, in assay [3], the “fold change of EC50 at the presence of 100 nM soluble protein” value was determined as 4.1 fold. The “Internalization of pHAb-dye-labelled antibody, MFI (37° C.-4° C.)/DAR” value in assay [4] stood at 11300. For the same molecule, in assay [5], the response was half-maximal at 0.09 nM (EC50). Also, the binding result in assay [6] is listed as “no binding”. In addition, the co-binding rate in assay [7] is -4.88%.

B2: PR304171 (antibody, human IgG1, kappa, V domains shown)
VH: not shown
VL: EIVMTQSPATLSVSPGERATLSCRASQNVISNLAWHQQKPGQAPRLLIYTTSTRATGIPARFSGSGSGTEFTLTISSLQSEDFAVYYCQQYNNWPLTFGGGTKVEIKR
notes: Recombinant full antibody
For B2, the EC50 in assay [5] turned out to be 1.25 nM. The binding result in assay [6] is reported as “no binding”. In addition, in assay [7], the co-binding rate came out at 13.7%.

A word on the Kd: it is the constant that tells how readily two partners part at equilibrium. For orientation: EC50 means the midpoint of the concentration-response curve.
